The series can be described thus: soluble on expression in E. coli; label from the status in PepcDB or PDB records.
“MCGIFAYLNFLAPKKRSEIVDILVQGLQRMEYRGYDSAGIAIDGSNDIENPHSKIALLRKRGKVSVLNDYIKENNEKLNMDMEYNIHCGIAHTRWATHGSPRDVNSHPHRSNDNNEFLVVHNGIITNYREIKEYLEKKGHKFESETDTEVIAKLTQHVHDRYPDFSFRQLVETVIQQLEGAFALAFKSSRFPGQLVASRRGSPLLVGIKSNSTLHTSHFPVSYSKGRCFMSNNATHLREETSFVETPNNILDLSIAVRNPSGSAKLPDNNSTTRPFDSTDFEVEYFIASDAAAIIEHTKQVLFLEDDDVAFVEDGSLTIHRISRHADSGEQKREVQLLELEIQEIMKGSYKTFMQKEIFEQPESVVNTMRGRVLPSGQVVLGGLKEYLPAIKRCRRLIMVACGTSYHSAIACRQVLEELSELPVVVELASDFLDRETPIFRNDVCLFISQSGETADTLMALRYCKPRGALTIGVTNTVGSSIGRESHCGIHINAGPEIGVASTKAYTSQIVSLLLFALTISEDRISKMKRRAEIIDALNNLPILIRDVLDLDDQVLKIAEQIYKDKSLLIMGRGLNFATCLEGALKIKELSYMHCEGIMSGELKHGPLAMVDEFLSICMVVCNDHVYKKSLNALQQVVARKGAPIIIADSSVPESDLAGMKHVLRVPRTVDCVQNILTVIPLQLLSYHIAELNGANVDRPRNLAKSVTVE”: the “soluble on expression in E. coli” value is given as “not soluble”. Regarding “MQALAAMPAPVAASVRIVLTDIDDTLTTEGRLPAGAYAALERLEQAGIVVVPITGRPAGWCDHIARMWPVRAVVGENGAFYYAYDRSARRMNAHYWADAATRAANRQALQAIRERVLREVPGTAVASDQDYRVADLAIDFCEDVPALPDSAVGRIVEIFHEAGAQAKVSSIHVNGWFGDYDKLTMTRTLFEREFGLSIDSALQHTLFIGDSPNDEPMFKFFPISVGVANIQSQLHRIQHRPAFVAAARGGDGFVEMAERLLANRG”, the “soluble on expression in E. coli” value is recorded as “not soluble”. Consider “MSEIKRLEINYKTDELFENFRAFGNKDLYMVNELNGQMIDASSDSPFYGIFVGDQLGARMALLKKGDVEEIYFPDFEDYILLWKLEVLPKYQNRGYASELIDFAKSFNMPIKAIGRNDSKDFFLHHGFTDVEAKNIEGHDVLLWKPIRLEHHHHHH”, for which the “soluble on expression in E. coli” value was “not soluble”.

For the sequence “NPDGLSQEQLEHRERSLQTLRDIQRMLFPDEKEFTGAQSGGPQQNP”, the “soluble on expression in E. coli” value was “soluble”.

Take “MKPVKSGLDSISKYLRTKKEVGRRKIGLLVDGPNILRKEFDVNLEEIRDVLKDYGNIKIGRVFLNQYASDKLVEAIENHGLEPIICSSDVDVRLAVEGMELVYNPNIDTLAIVTRDADFKPLLNKANEHGKETIIFGVEPGFSTALKNSADYVILMGKNHMSGYDDEDEEGKPDASERGEYHEEYPEDEYGESMEKT”: the “soluble on expression in E. coli” value was “not soluble”. The same measure for “MSLKIIAFYLPQFHQIKENDRWWGKGFTEWTNTKSAQPLFSGHYQPREPYQDFYYDLTTPSVRKWQAEIAKAYGIYGFCYYHYWFKGKRLLETPFNEVLKMKEPDFPFCLSWANEPWTKSWDGLDKHILMPQDYGDISDWKEHFDYLLQAFQDERYIYIDDKPLFIIYRPGHIPDCEKMLNYWNALARENGLKGIYFAETLNSFPLPNINGFDASIQFEPFYTIAHDSSSDINKVIYDSDMQLNVWDYDKVWMYILQRSLPKKKTFPGAFVDWDNTARRKNANSSIFVGSTPEKFTIYLSKQIHRTYSFYNSEFLFINAWNEWAEGTYLEPDKKYGFSYLEGVKNAIDRGMKAYKKDEGHHHHHH”: “soluble”; for “MSLKLISNDLRDGDKLPHRHVFNGMGYDGDNISPHLAWDDVPAGTKSFVVTCYDPDAPTGSGWWHWVVVNLPADTRVLPQGFGSGLVAMPDGVLQTRTDFGKTGYDGAAPPKGETHRYIFTVHALDIERIDVDEGASGAMVGFNVHFHSLASASITAMFSEGGSHHHHHH”: “soluble”; for “MNKLRKTIGRLEVKCKNADAGCIVTCPLAHRKGHQDSCPFELTACPNEGCTSQVPRGTLAEHRQHCQQGSQQRCPLGCGATLDPAERARHNCYRELHNAWSVRQERRRPLLLSLLRRVRWLDQATSVVRRELAELSNFLEEDTALLEGAPQEEAEAAPEGNVGAEVVGEPRANIPCK”: “soluble”. Next, “MGSDKIHHHHHHMMQIYLVGGAVRDQLLGLPIKDRDWLVVGSTAEELLSQGYQQVGKDFPVFLNPNTREEYALARTERKSGTGYTGFICDFNPDITLEQDLMRRDLTINAIAQDMAGQYHDPYNGIADLKKGILRHISPAFAEDPLRVLRVARFAARYHQLGFKIAPNTLALMKKIANNGELRQLSPERVWQETEKALHEQDPQVYFAILQKIDALKVLCPEISVFNSDSIQYRSDMTDFVHAMPILKQTTLLTEKTDYHKSAVRFAALCHDVGKALSTANIPPYSHDNKITSIAYLRNVCQRFKVPNYVQELAELTCQYHSHIHHALALHTKTILTLFNKLDVWRKPKRFEELMLVCLADSLTQTEMNYTDYPQYKFLLCLYQAALAVDVQQIISEGFQHKAIRVELDRRREIAIQIKKQQFIEQNLT”: “not soluble”; “TTSMIQISDAVGYLIRPLKIFKLPVDDIVLTLSIALRFIPTMLQEISTISDAQKARGSSLNSRSIAKKIKAIVPILMPLFIASVRRAEDLATAMIMRGYSDGKNRTKFRIMK”: “not soluble”; “PGYLNDIPRHGMFVKDLILLVNDTAAVAYDPMENECYLTALAEQIPRNHSSIVTQQNQVYVVGGLYVDEENKDQPLQSYFFQLDNVSSEWVGLPPLPSARCLFGLGEVDDKIYVVAGKDLQTEASLDSVLCYDPVAAKWSEVKNLPIKVYGHNVISHNGMIYCLGGKTDDKKCTNRVFIYNPKKGDWKDLAPMKTPRSMFGVAIHKGKIVIAGGVTEDGLSASVEAFDLKTNKWEVMTEFPQERSSISLVSLAGSLYAIGGFAMIQLESKEFAPTEVNDIWKYEDDKKEWAGMLKEIRYASGASCLATRLNLFKLSKL”: “soluble”. Next, “MFDPKKLEQIAKQIHDSMPAPVKELGADVDQKVRQVIQGQLNKLDVVSREEFDVQTQVLLRTRQKLTEMEKKLSELEEKLADK”: “not soluble”; “MSEIALEAWGEHEALLLKPPRSPLSIPPPKPRTAVLFPRREGFYTELGGYLPEVRLRFETYGTLSRRRDNAVLVFHALTGSAHLAGTYDEETFRSLSPLEQAFGREGWWDSLVGPGRILDPALYYVVSANHLGSCYGSTGPLSLDPRTGRPYGRDFPPLTIRDLARAQARLLDHLGVEKAIVIGGSLGGMVALEFALMYPERVKKLVVLAAPARHGPWARAFNHLSRQAILQDPEYQKGNPAPKGMALARGIAMMSYRAPEGFEARWGAEPELGETYLDYQGEKFLRRFHAESYLVLSRAMDTHDVGRGRGGVEEALKRLRAIPSLFVGIDTDLLYPAWEVRQAAKAAGARYREIKSPHGHDAFLIETDQVEEILDAFLP”: “soluble”; “MGSDKIHHHHHHAAQARLDKARAMYENNEFFGAKNEIDSIRALYPKEVKVLKQGLTLMRQVEVKEAERNIAFCDSLLPIKLEEVEGLKKGFAFEKDSVYEEIGNYIWKQQTIERNVQRCYVRCGVNEEGEMYLASVYYGGRPIEHTGIKLSLKDGQFAETASIPYDGGLNYRFKDMGSTTEVVTYKGEHCVDAVKFIYDNEKERIKVEYTGGKPYIIYMADADKKAIVNTFNLATVLSDIKSMNTLKEKSEKKIAYLKNKLEE”: “not soluble”. As for “AQSRTLLAGIVQQQQQLLDVVKRQQELLRLTVWGTKNLQTRVTAIEKYLKDQAQLNAWGAAFRQVAHTTVPWPNASLTPKWNNETWQEWERKVDFLEENITALLEEAQIQQEKNMYELQKLNS”, the “soluble on expression in E. coli” value was “soluble”. Next, “RLLGAPVPVDENDEGLQRALQFAMAEYNRASNDKYSSRVVRVISAKRQLVSGIKYILQVEIGRTTCPKSSGDLQSCEFHDEPEMAKYTTCTFVVYSIPWLNQIKLLESKCQ”: “soluble”; “MSLDDSYRIRHIVVKDEEEAREVLKELKGGSSFEAVAAERSTDRYTSPYGGDLGFVTEASDNIPSAYIEEAKTLKEDEWSQEPIKVSNGYAIIQLKEKLKARTFSFDEVKDQIRRQIAMDQLGDKATVKTLWKEADVSWFYGEKSTKEGHHHHHH”: “soluble”; “MAVTWAVSDGRAGNARQAEALARALHPDTVHALHLQARAPWRWAAPRRLPGANSAFGPAFAAQLQQPPGLVIGCGRQAALATRLLRARGSVAVQILDPRLDRRQWDLVVVPEHDALRGENVLTLLGSLHPVDDAWLAAGRAAFPAVGALPGPRVALLIGGPTTQVPWTLQALAAQCNAVQAQVRAAGGSLLITASRRTPPEVVALLRTLQQGNPGLLWCDARDGANPYAGLLGWADAIVASADSVNLLSEACATPVPVVAACAEFARGRVGAYVQALQQRQRLCAADEVLATTAAMTPVRETERIAAQVRMRLGLLEHHHHHH”: “soluble”. Next, “MAKSLTFSTFSPNNTLKKNVIPIVLLHGWGLNSGVWQPLLELFHRNDESIYQLITIDLPGFGINSAVDIKPYSLANICHHIEQVIDQPAIYLGWSLGGLIATEMSLKYPEKVLASITVASSPYFVEQPTDNWPGIKENVLESFHKQLAQDTAKTISGFLKIQAMGSPHIRQDLKLITQLVMAHTLPSQQTLADSLALLSNSDLRLHLSKIKQPLLRLYGHNDSLVPKEVMEKISYLAPNSDQHLFADASHAPFISHLDDFYQVLVVWLDSHFNLEHHHHHH”: “not soluble”; “MLPKANRIPYAMTVHGDTRIDNYYWLRDDTRSQPEVLDYLHQENEYGRKVMTSQQALQDRILKEIIDRIPPREVSAPYVKNGYRYRYIYEPGCEYAIYQRQSALSEEWDVWETLLDANQRAAHSEFYTLGGLAITPDNTIMALAEDYLSRRQYGLRFRNLESGNWYPELLDNVAPEFVWANDSLTLYYVRKHKKTLLPYQVWRHTIGTPSSQDELVYEEKDDTFYVSLHKTTSQHYVVIHLASATTSEVLLLDAELADAEPFSFLPRRKDHEYSLDHYQHKFYLRSNRNGKNFGLYRTRVRNENAWEELIPPREHIMLEGFTLFTDWLVVEERQRGLTSLRQINRKTREVIGIAFDDPAYVTWLAYNPEPETSRLRYGYSSMTTPDTLFELDMDTGERRVLKQTEVPGFDSGCYQSEHLWITARDGVEVPVSLVYHQKYFRKGQNPLLVYGYGSYGSSIDADFSSSRLSLLDRGFVYAIVHVRGGGELGQQWYEDGKFLKKRNTFNDYLDACDALLKLGYGSPSLCYGMGGSAGGMLMGVAINERPELFHGVIAQVPFVDVLTTMLDESIPLTTGEFEEWGNPQDIEYYDYMKSYSPYDNVKAQDYPHLLVTTGLHDSQVQYWEPAKWVAKLRELKTDQRLLLLCTDMDSGHGGKSGRFKSYEGVALEFAFLIGLAQGTLHSA”: “not soluble”.

With “MYHWFALRSVPLVGNVLYRRLLDRFGSPEAVFRASDAELASVRGVSSAVAASIRGHDPRAFAESECERVRRAGVRIVTIRDPDYPPLLLQIADPPPYLYVKGDPTGLEPAVAVVGSRRATVYGRTVTARLAEDLARRGVAVVSGMARGIDTAAHQGALAGEGRTVGVLGCGIDVVYPPENRALFARVADRGALVSEFPLGMGPLAENFPRRNRIISGMCRGVLVVEAAERSGSLITAQMALDQGRDVFAIPGNITSSGSSGTNRLIREGAKLVAGVEDILEELVPRAAAAVAVAPPLPPLPAGEAALMAMFGADPLHIDEIIAKSALTVGEVSAMLLRLELKGVVTQLPGKFFHAN”, the “soluble on expression in E. coli” value was “not soluble”. With “MAVIYYDKDADLNLIKDKKIAIIGYGSQGHAHALNLKDSGLNVVVGLREGSKSWKKAEEQGLTVKTIEEAAKEADIIMILIPDEHQPEIYKKYIEKHLTEGKMLMFAHGFNIHYHQIIPPKNVDVTMIAPKSPGHIVRREYVEGRGVPALVAVYQDYTGKAKDIALAYAKGIGVTRAGVIETTFKEETETDLFGEQAVLCGGVTALIKAGFETLVDAGYQPEIAYFECLNELKLIVDLIYEGGLSFMRYSVSNTAEYGDYISQEKIVTKEVRENMKQMLKDIQTGKFAKDWILENQAGRPYFYTMRKKESEHLIEKVGKELRKMMPWLKERNVDEE”, the “soluble on expression in E. coli” value is listed as “soluble”.
